Where two headings read alike, the source gives them in different places.

The text below walks through data of US20240226314A1 (Sanofi, published 2024).

T1: His-tagged cynomolgus monkey TfR ectodomain (cyTFRC_89_760; mature protein) (cynomolgus monkey (Macaca fascicularis), UniProt Q5RDH6 89-760 (Pongo abelii entry))
T1 construct: also called cTfR; cTfR ectodomain
T1 chain: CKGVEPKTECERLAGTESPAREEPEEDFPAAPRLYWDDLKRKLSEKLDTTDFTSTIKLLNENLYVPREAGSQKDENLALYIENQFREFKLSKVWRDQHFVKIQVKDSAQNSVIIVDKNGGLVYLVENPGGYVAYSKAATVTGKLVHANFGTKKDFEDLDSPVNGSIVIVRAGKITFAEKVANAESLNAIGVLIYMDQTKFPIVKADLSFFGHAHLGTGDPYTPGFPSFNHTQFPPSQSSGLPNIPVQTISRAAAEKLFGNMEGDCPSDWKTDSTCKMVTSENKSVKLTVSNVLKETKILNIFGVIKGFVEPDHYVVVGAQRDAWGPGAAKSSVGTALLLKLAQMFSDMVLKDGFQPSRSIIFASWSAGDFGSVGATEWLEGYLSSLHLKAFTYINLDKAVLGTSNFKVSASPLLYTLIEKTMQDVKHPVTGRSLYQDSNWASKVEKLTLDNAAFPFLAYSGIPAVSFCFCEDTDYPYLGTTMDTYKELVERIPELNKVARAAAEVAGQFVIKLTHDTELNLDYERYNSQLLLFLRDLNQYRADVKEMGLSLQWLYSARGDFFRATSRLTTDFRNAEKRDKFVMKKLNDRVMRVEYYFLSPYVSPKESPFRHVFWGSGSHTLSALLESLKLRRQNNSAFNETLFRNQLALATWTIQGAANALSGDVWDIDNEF

B1: anti-TfR 531v25mAb-GAA (antibody, human IgG1, kappa)
heavy 1: QVQLVQSGAEVKKPGASVKVSCKASGYTFTRYYLNWVRQAPGQGLEWIGMIDPSVSETHYAQKFQGRATLTVDKSTSTAYMELSSLRSEDTAVYYCSQIRLPYYYAMDSWGQGTTVTVSSASTKGPSVFPLAPSSKSTSGGTAALGCLVKDYFPEPVTVSWNSGALTSGVHTFPAVLQSSGLYSLSSVVTVPSSSLGTQTYICNVNHKPSNTKVDKKVEPKSCDKTHTCPPCPAPELLGGPSVFLFPPKPKDTLMISRTPEVTCVVVDVSHEDPEVKFNWYVDGVEVHNAKTKPREEQYNNASRVVSVLTVLHQDWLNGKEYKCKVSNKALPAPIEKTISKAKGQPREPQVCTLPPSRDELTKNQVSLSCAVKGFYPSDIAVEWESNGQPENNYKTTPPVLDSDGSFFLVSKLTVDKSRWQQGNVFSCSVMHEALHNRFTQKSLSLSPG
heavy 2: not shown
light: not shown
B2: cTfR expressed on 300.19 cells (SEQ ID NO: 2) (receptor)
chain: MMDQARSAFSNLFGGEPLSYTRFSLARQVDGDNSHVEMKLGVDEEENTDNNTKANGTKPKRCGGNICYGTIAVIIFFLIGFMIGYLGYCKGVEPKTECERLAGTESPAREEPEEDFPAAPRLYWDDLKRKLSEKLDTTDFTSTIKLLNENLYVPREAGSQKDENLALYIENQFREFKLSKVWRDQHFVKIQVKDSAQNSVIIVDKNGGLVYLVENPGGYVAYSKAATVTGKLVHANFGTKKDFEDLDSPVNGSIVIVRAGKITFAEKVANAESLNAIGVLIYMDQTKFPIVKADLSFFGHAHLGTGDPYTPGFPSFNHTQFPPSQSSGLPNIPVQTISRAAAEKLFGNMEGDCPSDWKTDSTCKMVTSENKSVKLTVSNVLKETKILNIFGVIKGFVEPDHYVVVGAQRDAWGPGAAKSSVGTALLLKLAQMFSDMVLKDGFQPSRSIIFASWSAGDFGSVGATEWLEGYLSSLHLKAFTYINLDKAVLGTSNFKVSASPLLYTLIEKTMQDVKHPVTGRSLYQDSNWASKVEKLTLDNAAFPFLAYSGIPAVSFCFCEDTDYPYLGTTMDTYKELVERIPELNKVARAAAEVAGQFVIKLTHDTELNLDYERYNSQLLLFLRDLNQYRADVKEMGLSLQWLYSARGDFFRATSRLTTDFRNAEKRDKFVMKKLNDRVMRVEYYFLSPYVSPKESPFRHVFWGSGSHTLSALLESLKLRRQNNSAFNETLFRNQLALATWTIQGAANALSGDVWDIDNEF
notes: Murine pre-B cell line 300.19, stably transfected with a plasmid expressing cTfR; also called cynomolgus TfR; cTfR-expressing 300.19 cells
B3: anti-TfR 531v25-Fab-LC-GAA (Fab)
heavy: QVQLVQSGAEVKKPGASVKVSCKASGYTFTRYYLNWVRQAPGQGLEWIGMIDPSVSETHYAQKFQGRATLTVDKSTSTAYMELSSLRSEDTAVYYCSQIRLPYYYAMDSWGQGTTVTVSSASTKGPSVFPLAPSSKSTSGGTAALGCLVKDYFPEPVTVSWNSGALTSGVHTFPAVLQSSGLYSLSSVVTVPSSSLGTQTYICNVNHKPSNTKVDKKVEPKSC
light: not shown
notes: Fab with human GAA fused to the C-terminus of the light chain; also called 531v25Fab-GAA
B4: 531v25 Fab (Fab, V domains shown)
VH: QVQLVQSGAEVKKPGASVKVSCKASGYTFTRYYLNWVRQAPGQGLEWIGMIDPSVSETHYAQKFQGRATLTVDKSTSTAYMELSSLRSEDTAVYYCSQIRLPYYYAMDSWGQGTTVTVSS
VL: DIQMTQSPSSLSASVGDRVTITCRASQDISSFLNWYQQKPGKAPKLLIYYTSRLQSGVPSRFSGSGSGTDYTLTISSLQPEDFATYYCQQGNTLPRTFGGGTKVEIKR
notes: The His-tag was removed with TEV protease before SPR

Test [1] concerns the target B2. The experiment in a line: flow cytometry on cTfR-expressing 300.19 cells. The procedure: (§1) The binding kinetics of the four anti-TfR-GAA molecules to hTfR-expressing 300.19 cells and cTfR-expressing 300.19 cells were determined by flow cytometry. 300.19 is a murine pre-B cell line, originating from a lymphoma, and was stably transfected by nucleoporation with a plasmid expressing either hTfR or cTfR (SEQ ID NO: 1 and SEQ ID NO: 2, respectively).
(§2) 300.19 TFRC-expressing cells were coated at 5×10⁵ cells/well on 96-well High Bind plate (MSD L15XB-3) and 100 μL/well of anti-TfR-GAA molecule were added and incubated for 45 min at 4° C. and washed three times with PBS 1% BSA. […] Antibody binding was evaluated after centrifugation and resuspension of cells by adding 200 μl/well PBS 1% BSA and read using Guava® easyCyte™ 8HT Flow Cytometry System.

In test [2] the target is T2, hTfR expressed on 300.19 cells (SEQ ID NO: 1) (human, UniProt P02786 1-760).
T2 construct: Murine pre-B cell line 300.19, stably transfected with a plasmid expressing hTfR; also called human TfR; hTfR-expressing 300.19 cells
The test is described as follows: flow cytometry on hTfR-expressing 300.19 cells. How it is done:
as §1, §2

In test [3] the target is B2. The experiment in a line: flow cytometry; EC50 on cTfR cells against EC50 on hTfR cells. How it is done: as §1, §2
A general note: In flow cytometry, cells or beads pass a laser one at a time.

Test [4] concerns the target T3, anti-TfR 531v25-Fab-FcOL-GAA.
T3 construct: Monovalent Fab-FcOL with GAA fused to the C-terminus of the Fc polypeptide
The test is described as follows: flow cytometry on TfR-expressing 300.19 cells.

Test [5] deals with T4, anti-TfR 531v25-Fab-FcOL-LC-GAA (Homo sapiens (Human), UniProt P0DOX5 223-448 = IgG part).
T4 construct: Monovalent Fab-FcOL with GAA fused to the C-terminus of the light chain
The experiment in a line: flow cytometry on TfR-expressing 300.19 cells.

Test [6] concerns the target T1, His-tagged cynomolgus monkey TfR …. The experiment in a line: SPR; KD on cTfR against KD on hTfR. The procedure:
(§3) Binding of the humanized Fab variants to human, cynomolgus and mouse TfR was assessed using SPR at pH 7.4. Experiments were run on a Bruker MASS-2 instrument with HBS-EP+ as running buffer and sample diluent (Cytiva Life Sciences, #BR100826). HCA sensor chips (Bruker, #1862614) were immobilized with anti-His antibody (His capture kit, Cytiva Life Sciences, #28995056) following manufacturer's instructions. About 10,000 RU of anti-His was obtained. His-tagged hTfR ectodomain (SEQ ID NO: 39), cTfR ectodomain (SEQ ID NO: 40) or mouse TfR ectodomain (SEQ ID NO: 41) (5 μg/ml) was captured for 1 min at 10 μL/min. Concentration series of the humanized Fab variants were then injected for 4 min at 30 μL/min over hTfR surfaces and dissociation was monitored for 5 min. Surface was regenerated with one 1 min pulse of 10 mM glycine-HCl at pH 1.5.

Test [7] has the same target. The test is described as follows: SPR; KD on cTfR against KD on hTfR. The procedure:
as §3
Background: In SPR one partner is held on a chip, and binding of the other changes the refractive index at the surface.

For test [8], the target named is His-tagged mouse TfR ectodomain (mTFRC_89_764; mature protein) (mouse, UniProt Q62351 89-763). The test is described as follows: SPR, His-tagged mTfR ectodomain captured on anti-His. How it is done: as §3
Test [9] deals with T5, His-tagged human TfR ectodomain (hTFRC_89-760_G142S; mature protein) (human, UniProt P02786 89-760).
T5 construct: It carries the G142S haplotype; also called hTfR ectodomain
The test is described as follows: SPR, His-tagged TfR ectodomain captured on anti-His, 1:1 fit. The procedure:
as §3

Test [10] has as its target T1, His-tagged cynomolgus monkey TfR …. The test is described as above. How it is done: as §3
Test [11] deals with T5, His-tagged human TfR ectodomain …. The test is described as above. How it is done: as §3
This is another data set of the same source.

In test [12] the target is T1, His-tagged cynomolgus monkey TfR …. Described as above. How it is done:
as §3

T3 sequence (chain, as listed by the source): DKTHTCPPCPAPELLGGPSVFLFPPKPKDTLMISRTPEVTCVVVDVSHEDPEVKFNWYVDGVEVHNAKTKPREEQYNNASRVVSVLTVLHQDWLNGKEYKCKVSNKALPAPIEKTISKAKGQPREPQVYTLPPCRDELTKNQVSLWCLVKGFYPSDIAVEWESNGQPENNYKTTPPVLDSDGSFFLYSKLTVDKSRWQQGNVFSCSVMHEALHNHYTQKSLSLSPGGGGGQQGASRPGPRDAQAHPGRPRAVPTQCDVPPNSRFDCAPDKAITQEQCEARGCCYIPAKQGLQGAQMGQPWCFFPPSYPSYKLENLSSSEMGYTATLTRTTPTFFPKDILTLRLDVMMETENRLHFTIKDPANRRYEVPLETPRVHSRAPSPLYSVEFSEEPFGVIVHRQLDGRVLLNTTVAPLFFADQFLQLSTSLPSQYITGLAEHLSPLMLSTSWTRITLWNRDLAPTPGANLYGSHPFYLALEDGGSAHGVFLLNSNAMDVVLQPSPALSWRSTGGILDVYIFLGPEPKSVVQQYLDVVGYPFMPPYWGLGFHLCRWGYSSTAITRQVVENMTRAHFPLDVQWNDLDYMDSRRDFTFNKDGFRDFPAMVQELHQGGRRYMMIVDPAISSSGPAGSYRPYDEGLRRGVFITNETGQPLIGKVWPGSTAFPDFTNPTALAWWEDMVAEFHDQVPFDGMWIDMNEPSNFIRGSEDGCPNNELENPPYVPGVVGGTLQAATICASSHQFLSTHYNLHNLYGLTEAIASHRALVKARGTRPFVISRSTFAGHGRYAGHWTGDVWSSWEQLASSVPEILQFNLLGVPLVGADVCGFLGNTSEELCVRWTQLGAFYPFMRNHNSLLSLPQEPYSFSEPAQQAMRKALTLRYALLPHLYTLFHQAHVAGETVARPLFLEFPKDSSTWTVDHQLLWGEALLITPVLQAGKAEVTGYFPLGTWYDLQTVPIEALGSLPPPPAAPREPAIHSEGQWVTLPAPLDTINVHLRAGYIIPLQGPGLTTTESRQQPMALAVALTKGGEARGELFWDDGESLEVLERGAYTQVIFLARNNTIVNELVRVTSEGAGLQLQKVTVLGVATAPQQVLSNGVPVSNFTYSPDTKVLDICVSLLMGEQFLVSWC
Chain of His-tagged mouse TfR ectodomain (mTFRC_89_764; mature protein) (Q62351 other isoform, or with tags, fused parts or gaps): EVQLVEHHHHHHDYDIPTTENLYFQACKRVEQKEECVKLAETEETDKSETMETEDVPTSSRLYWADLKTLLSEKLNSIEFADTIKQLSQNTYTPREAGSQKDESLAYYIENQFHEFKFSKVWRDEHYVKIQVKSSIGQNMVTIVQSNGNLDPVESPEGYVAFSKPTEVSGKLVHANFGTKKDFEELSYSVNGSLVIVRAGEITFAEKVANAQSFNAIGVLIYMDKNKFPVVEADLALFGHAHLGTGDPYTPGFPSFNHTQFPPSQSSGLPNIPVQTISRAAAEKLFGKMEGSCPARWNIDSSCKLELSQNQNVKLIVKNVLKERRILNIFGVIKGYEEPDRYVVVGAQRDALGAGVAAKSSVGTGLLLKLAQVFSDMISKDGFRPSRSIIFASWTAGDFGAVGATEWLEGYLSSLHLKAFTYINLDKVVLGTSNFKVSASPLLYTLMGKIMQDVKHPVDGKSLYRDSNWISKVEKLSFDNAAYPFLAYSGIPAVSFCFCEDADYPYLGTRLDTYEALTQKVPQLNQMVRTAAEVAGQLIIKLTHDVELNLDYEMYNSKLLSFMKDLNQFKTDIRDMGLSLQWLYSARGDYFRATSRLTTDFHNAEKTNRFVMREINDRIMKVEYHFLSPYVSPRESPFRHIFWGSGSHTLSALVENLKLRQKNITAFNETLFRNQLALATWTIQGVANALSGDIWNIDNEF

As usually defined, the EC50 is the concentration giving half of the maximal effect. In the case of B1, the concentration for a half-maximal effect (EC50) in test [1] worked out at 2.6 nM; in [2] it was 2.7 nM. The “Cynomolgus/human ratio (TfR)” value in [3] turned out to be 1.

Turning to B2, the binding result in test [4] and in [5] was “binds” each time.

For the molecule B3, the EC50 in [1] amounted to 74.6 nM; in test [2], 9.9 nM. For the same molecule, in test [3], the “Cynomolgus/human ratio (TfR)” value was found to be 7.5.

For orientation: Kd means the free concentration of one partner at which half of the binding sites on the other are occupied at equilibrium, for simple one-to-one binding. In the case of B4, the “Cynomolgus/human KD ratio” value in test [6] came to 12.5; in [7], 12.4. Besides, the binding result in test [8] is on record as “no binding”. The Kd in test [9] came to 4.45 nM; in [10], 55.8 nM; in test [11] it was 4.5 nM; in test [12], 55.8 nM.
